The text below walks through data of US20130090249A1 (CENTRE NATIONAL DE LA RECHERCHE SCIENTIFIQUE CNRS, published 2013).

The target of assay [1] is T1, Lingo-1-HA (human, UniProt Q96FE5 42-620).
T1 construct: also called Lingo-HA; HA-tagged whole Lingo-1 protein
T1 sequence: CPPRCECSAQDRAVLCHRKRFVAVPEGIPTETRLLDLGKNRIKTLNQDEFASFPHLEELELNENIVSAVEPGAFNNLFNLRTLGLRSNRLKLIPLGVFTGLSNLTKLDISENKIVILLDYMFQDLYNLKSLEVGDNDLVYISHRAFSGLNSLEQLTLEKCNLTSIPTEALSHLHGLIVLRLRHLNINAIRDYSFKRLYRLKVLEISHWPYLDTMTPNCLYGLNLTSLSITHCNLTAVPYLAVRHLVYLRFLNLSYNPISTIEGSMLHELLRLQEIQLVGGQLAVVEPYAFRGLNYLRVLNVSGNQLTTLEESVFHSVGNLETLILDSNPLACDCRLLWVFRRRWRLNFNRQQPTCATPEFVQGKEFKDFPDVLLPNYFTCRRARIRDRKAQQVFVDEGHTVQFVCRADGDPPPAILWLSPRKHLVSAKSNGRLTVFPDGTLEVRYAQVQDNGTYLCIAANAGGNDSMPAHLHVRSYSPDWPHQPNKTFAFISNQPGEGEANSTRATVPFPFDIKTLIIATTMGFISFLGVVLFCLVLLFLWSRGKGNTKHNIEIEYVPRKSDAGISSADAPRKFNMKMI
Description: BRET competition in live HEK-293 cells; the competitor may take the place of either the RLuc or the YFP partner. Here is the method:
(§1) HEK-293 cells were transfected with the Lingo-1-RLuc and Lingo-1-YFP fusion proteins (the donor/acceptor ratio remains constant) and increasing concentrations of the whole Lingo-1 protein (Lingo-1-HA, amino acids 1-620) or the dominant negative thereof (DN-HA, amino acids 1-577) tagged with HA. The BRET measurement was carried out 48 hours after the transfection on live cells.
(§2) The BRET signal obtained between the Lingo-1-RLuc and Lingo-1-YFP proteins is therefore specific and can be modulated. […] In addition, when increasing concentrations of HA-tagged Lingo-1 protein were added (Lingo-1-HA at 0, 200, 400, 800, 1600 and 2600 ng), the BRET signal decreased (FIG. 5b); thereby making it possible to plot inhibition curves.
Background: In BRET a luciferase serves as donor, and the signal depends on an acceptor being close.

Assay [2] has as its target T2, DN-Lingo-1-HA (human, UniProt Q96FE5 42-577).
T2 construct: Residues 1-577 are counted on the 620-amino-acid human Lingo-1 (NP-116197); Expressed in HEK-293 cells; also called DN-HA; HA-tagged dominant negative of Lingo-1
T2 sequence: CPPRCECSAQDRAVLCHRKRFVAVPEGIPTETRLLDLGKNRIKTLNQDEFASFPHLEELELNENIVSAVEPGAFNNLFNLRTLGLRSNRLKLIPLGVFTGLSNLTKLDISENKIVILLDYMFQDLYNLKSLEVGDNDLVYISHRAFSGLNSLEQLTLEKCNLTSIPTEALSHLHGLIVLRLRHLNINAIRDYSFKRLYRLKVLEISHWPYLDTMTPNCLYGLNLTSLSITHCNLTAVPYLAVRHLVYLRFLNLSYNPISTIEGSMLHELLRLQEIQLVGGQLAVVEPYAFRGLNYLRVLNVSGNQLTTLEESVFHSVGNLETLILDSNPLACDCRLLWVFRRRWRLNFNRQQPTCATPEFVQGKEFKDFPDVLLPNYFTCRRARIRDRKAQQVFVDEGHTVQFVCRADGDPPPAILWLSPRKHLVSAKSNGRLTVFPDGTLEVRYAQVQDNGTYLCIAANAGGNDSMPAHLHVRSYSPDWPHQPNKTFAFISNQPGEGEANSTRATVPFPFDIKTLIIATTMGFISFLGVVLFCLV
The assay is described as above. Here is the method: as §1, §2

B1: Lingo-1-RLuc (other)
chain: CPPRCECSAQDRAVLCHRKRFVAVPEGIPTETRLLDLGKNRIKTLNQDEFASFPHLEELELNENIVSAVEPGAFNNLFNLRTLGLRSNRLKLIPLGVFTGLSNLTKLDISENKIVILLDYMFQDLYNLKSLEVGDNDLVYISHRAFSGLNSLEQLTLEKCNLTSIPTEALSHLHGLIVLRLRHLNINAIRDYSFKRLYRLKVLEISHWPYLDTMTPNCLYGLNLTSLSITHCNLTAVPYLAVRHLVYLRFLNLSYNPISTIEGSMLHELLRLQEIQLVGGQLAVVEPYAFRGLNYLRVLNVSGNQLTTLEESVFHSVGNLETLILDSNPLACDCRLLWVFRRRWRLNFNRQQPTCATPEFVQGKEFKDFPDVLLPNYFTCRRARIRDRKAQQVFVDEGHTVQFVCRADGDPPPAILWLSPRKHLVSAKSNGRLTVFPDGTLEVRYAQVQDNGTYLCIAANAGGNDSMPAHLHVRSYSPDWPHQPNKTFAFISNQPGEGEANSTRATVPFPFDIKTLIIATTMGFISFLGVVLFCLVLLFLWSRGKGNTKHNIEIEYVPRKSDAGISSADAPRKFNMKMISRDPPVATMTSKVYDPEQRKRMITGPQWWARCKQMNVLDSFINYYDSEKHAENAVIFLHGNAASSYLWRHVVPHIEPVARCIIPDLIGMGKSGKSGNGSYRLLDHYKYLTAWFELLNLPKKIIFVGHDWGACLAFHYSYEHQDKIKAIVHAESVVDVIESWDEWPDIEEDIALIKSEEGEKMVLENNFFVETMLPSKIMRKLEPEEFAAYLEPFKEKGEVRRPTLSWPREIPLVKGGKPDVVQIVRNYNAYLRASDDLPKMFIESDPGFFSNAIVEGAKKFPNTEFVKVKGLHFSQEDAPDEMGKYIKSFVERVLKNEQ
notes: also called hLingo-1-RLuc
In the case of B1, the binding result in assay [1] and in assay [2] was “binds” each time.
